These results are taken from US20180118789A1.

Assay [1] has as its target mouse melanocortin 1 receptor (mouse) (UniProt Q01727). The assay is described as follows: cell-based or functional assay.
In assay [2] the target is mouse melanocortin 3 receptor (mouse) (UniProt P33033). The assay is described as follows: cell-based or functional assay.
Sequence of mouse melanocortin 3 receptor (mouse) (P33033 whole entry): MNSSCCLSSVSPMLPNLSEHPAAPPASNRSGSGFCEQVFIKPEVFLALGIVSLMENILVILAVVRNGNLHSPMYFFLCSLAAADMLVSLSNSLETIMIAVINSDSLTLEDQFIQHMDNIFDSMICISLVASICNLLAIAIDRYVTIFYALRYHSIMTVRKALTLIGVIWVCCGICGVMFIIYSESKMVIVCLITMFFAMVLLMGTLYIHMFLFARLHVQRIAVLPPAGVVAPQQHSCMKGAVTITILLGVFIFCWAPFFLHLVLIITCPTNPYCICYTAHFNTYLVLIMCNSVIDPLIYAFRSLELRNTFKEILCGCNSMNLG

Sequence of mouse melanocortin 1 receptor (mouse) (Q01727 whole entry): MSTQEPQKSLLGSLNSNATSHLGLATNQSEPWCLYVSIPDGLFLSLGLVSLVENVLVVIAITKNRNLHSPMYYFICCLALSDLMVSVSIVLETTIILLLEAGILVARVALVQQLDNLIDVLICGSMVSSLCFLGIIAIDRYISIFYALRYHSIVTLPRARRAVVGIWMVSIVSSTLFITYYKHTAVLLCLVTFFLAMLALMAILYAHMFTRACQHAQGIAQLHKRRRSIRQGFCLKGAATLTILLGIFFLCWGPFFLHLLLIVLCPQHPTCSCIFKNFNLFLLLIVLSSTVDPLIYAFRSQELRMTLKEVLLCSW

On to “NDP-MSH (4-Norleucine-7-D-Phenylalanine), Ac-Ser-Tyr-Ser-Nle-Glu-His-DPhe-Arg-Trp-Gly-Lys-Pro-Val-NH2 (peptide)”, for which the EC50 (nM), agonist, cAMP AlphaScreen in assay [1] came to 0.015 nM; in assay [2], 0.09 nM.
